Experimental data taken from US20120034160A1 (AbbVie / Abbott, published 2012).

T1: Recombinant Human IL-17 (human, UniProt Q16552 20-155, limits assumed)
T1 construct: bought reagent
T1 sequence (looked up): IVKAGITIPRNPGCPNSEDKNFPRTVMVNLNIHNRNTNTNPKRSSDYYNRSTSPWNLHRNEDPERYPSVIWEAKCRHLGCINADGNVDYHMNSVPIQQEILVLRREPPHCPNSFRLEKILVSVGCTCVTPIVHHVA

B1: DVD1604 (bispecific antibody, human IgG1, kappa)
heavy: not shown
light: EIVLTQSPDFQSVTPKEKVTITCRASQDIGSELHWYQQKPDQPPKLLIKYASHSTSGVPSRFSGSGSGTDFTLTINGLEAEDAGTYYCHQTDSLPYTFGPGTKVDIKRTVAAPSVFIFPPDTQVTQSPSSLSASVGDRVTITCITSTDIDVDMNWYQQKPGKPPKLLISQGNTLRPGVPSRFSSSGSGTDFTFTISSLQPEDFATYYCLQSDNLPLTFGQGTKLEIKRTVAAPSVFIFPPSDEQLKSGTASVVCLLNNFYPREAKVQWKVDNALQSGNSQESVTEQDSKDSTYSLSSTLTLSKADYEKHKVYACEVTHQGLSSPVTKSFNRGEC
notes: DVD-Ig, outer AB274, inner AB270, linker set 2; V1 wt hIgG1, V2 kappa; also called DVD1604H; DVD1604L
B2: DVD1608 (bispecific antibody, human IgG1, kappa)
heavy: not shown
light: EIVLTQSPDFQSVTPKEKVTITCRASQDIGSELHWYQQKPDQPPKLLIKYASHSTSGVPSRFSGSGSGTDFTLTINGLEAEDAGTYYCHQTDSLPYTFGPGTKVDIKRTVAAPSVFIFPPETTVTQSPSSLSASVGDRVTITCITSTDIDVDMNWYQQKPGKPPKLLISQGNTLRPGVPSRFSSSGSGTDFTFTISSLQPEDFATYYCLQSDNLPLTFGQGTKLEIKRTVAAPSVFIFPPSDEQLKSGTASVVCLLNNFYPREAKVQWKVDNALQSGNSQESVTEQDSKDSTYSLSSTLTLSKADYEKHKVYACEVTHQGLSSPVTKSFNRGEC
notes: DVD-Ig, outer AB274, inner AB272, linker set 2; V1 wt hIgG1, V2 kappa; also called DVD1608H; DVD1608L
B3: DVD1614 (bispecific antibody, human IgG1, kappa)
heavy: not shown
light: EIVLTQSPDFQSVTPKEKVTITCRASQNIGSELHWYQQKPDQSPKLLIKYASHSISGVPSRFSGSGSGTDFTLTINGLEAEDAATYYCHQSDTLPHTFGQGTKVDIKRTVAAPSVFIFPPDTQVTQSPSSLSASVGDRVTITCITSTDIDVDMNWYQQKPGKPPKLLISQGNTLRPGVPSRFSSSGSGTDFTFTISSLQPEDFATYYCLQSDNLPLTFGQGTKLEIKRTVAAPSVFIFPPSDEQLKSGTASVVCLLNNFYPREAKVQWKVDNALQSGNSQESVTEQDSKDSTYSLSSTLTLSKADYEKHKVYACEVTHQGLSSPVTKSFNRGEC
notes: DVD-Ig, outer AB275, inner AB270, linker set 2; V1 wt hIgG1, V2 kappa; also called DVD1614H; DVD1614L
B4: DVD1618 (bispecific antibody, human IgG1, kappa)
heavy: not shown
light: EIVLTQSPDFQSVTPKEKVTITCRASQNIGSELHWYQQKPDQSPKLLIKYASHSISGVPSRFSGSGSGTDFTLTINGLEAEDAATYYCHQSDTLPHTFGQGTKVDIKRTVAAPSVFIFPPETTVTQSPSSLSASVGDRVTITCITSTDIDVDMNWYQQKPGKPPKLLISQGNTLRPGVPSRFSSSGSGTDFTFTISSLQPEDFATYYCLQSDNLPLTFGQGTKLEIKRTVAAPSVFIFPPSDEQLKSGTASVVCLLNNFYPREAKVQWKVDNALQSGNSQESVTEQDSKDSTYSLSSTLTLSKADYEKHKVYACEVTHQGLSSPVTKSFNRGEC
notes: DVD-Ig, outer AB275, inner AB272, linker set 2; V1 wt hIgG1, V2 kappa; also called DVD1618H; DVD1618L
B5: DVD1624 (bispecific antibody, human IgG1, kappa)
heavy: not shown
light: DIQMTQSPSSLSASVGDRVTITCRASSGIISYIDWFQQKPGKAPKRLIYATFDLASGVPSRFSGSGSGTDYTLTISSLQPEDFATYYCRQVGSYPETFGQGTKLEIKRTVAAPDTQVTQSPSSLSASVGDRVTITCITSTDIDVDMNWYQQKPGKPPKLLISQGNTLRPGVPSRFSSSGSGTDFTFTISSLQPEDFATYYCLQSDNLPLTFGQGTKLEIKRTVAAPSVFIFPPSDEQLKSGTASVVCLLNNFYPREAKVQWKVDNALQSGNSQESVTEQDSKDSTYSLSSTLTLSKADYEKHKVYACEVTHQGLSSPVTKSFNRGEC
notes: DVD-Ig, outer AB273, inner AB270, linker set 3; V1 wt hIgG1, V2 kappa; also called DVD1624H; DVD1624L
B6: DVD1606 (bispecific antibody, human IgG1, kappa)
heavy: not shown
light: EIVLTQSPDFQSVTPKEKVTITCRASQDIGSELHWYQQKPDQPPKLLIKYASHSTSGVPSRFSGSGSGTDFTLTINGLEAEDAGTYYCHQTDSLPYTFGPGTKVDIKRTVAAPSVFIFPPDTVVTQSPAFLSVTPGEKVTITCITSTDIDVDMNWYQQKPDQPPKLLISQGNTLRPGVPSRFSSSGSGTDFTFTISSLEAEDAATYYCLQSDNLPLTFGQGTKLEIKRTVAAPSVFIFPPSDEQLKSGTASVVCLLNNFYPREAKVQWKVDNALQSGNSQESVTEQDSKDSTYSLSSTLTLSKADYEKHKVYACEVTHQGLSSPVTKSFNRGEC
notes: DVD-Ig, outer AB274, inner AB271, linker set 2; V1 wt hIgG1, V2 kappa; also called DVD1606H; DVD1606L
B7: DVD1616 (bispecific antibody, human IgG1, kappa)
heavy: not shown
light: EIVLTQSPDFQSVTPKEKVTITCRASQNIGSELHWYQQKPDQSPKLLIKYASHSISGVPSRFSGSGSGTDFTLTINGLEAEDAATYYCHQSDTLPHTFGQGTKVDIKRTVAAPSVFIFPPDTVVTQSPAFLSVTPGEKVTITCITSTDIDVDMNWYQQKPDQPPKLLISQGNTLRPGVPSRFSSSGSGTDFTFTISSLEAEDAATYYCLQSDNLPLTFGQGTKLEIKRTVAAPSVFIFPPSDEQLKSGTASVVCLLNNFYPREAKVQWKVDNALQSGNSQESVTEQDSKDSTYSLSSTLTLSKADYEKHKVYACEVTHQGLSSPVTKSFNRGEC
notes: DVD-Ig, outer AB275, inner AB271, linker set 2; V1 wt hIgG1, V2 kappa; also called DVD1616H; DVD1616L
B8: DVD1610 (bispecific antibody, human IgG1, kappa)
heavy: not shown
light: EIVLTQSPDFQSVTPKEKVTITCRASQNIGSELHWYQQKPDQSPKLLIKYASHSISGVPSRFSGSGSGTDFTLTINGLEAEDAATYYCHQSDTLPHTFGQGTKVDIKRTVAAPSVFIFPPDIQMTQSPSSLSASVGDRVTITCRASGNIHNYLTWYQQTPGKAPKLLIYNAKTLADGVPSRFSGSGSGTDYTFTISSLQPEDIATYYCQHFWSIPYTFGQGTKLQITRTVAAPSVFIFPPSDEQLKSGTASVVCLLNNFYPREAKVQWKVDNALQSGNSQESVTEQDSKDSTYSLSSTLTLSKADYEKHKVYACEVTHQGLSSPVTKSFNRGEC
notes: V1 wt hIgG1, V2 kappa; also called DVD1610H; DVD1610L
B9: DVD1612 (bispecific antibody, human IgG1, kappa)
heavy: not shown
light: EIVLTQSPDFQSVTPKEKVTITCRASQNIGSELHWYQQKPDQSPKLLIKYASHSISGVPSRFSGSGSGTDFTLTINGLEAEDAATYYCHQSDTLPHTFGQGTKVDIKRTVAAPSVFIFPPDIQMTQSPSSLSASVGDRVTITCRASGNIHNYLTWYQQTPGKAPKLLIYNAKTLADGVPSRFSGSGSGTDYTFTISSLQPEDIATYYCQHFWSIPYTFGQGTKLQITRTVAAPSVFIFPPSDEQLKSGTASVVCLLNNFYPREAKVQWKVDNALQSGNSQESVTEQDSKDSTYSLSSTLTLSKADYEKHKVYACEVTHQGLSSPVTKSFNRGEC
notes: V1 wt hIgG1, V2 kappa; also called DVD1612H; DVD1612L
B10: DVD1620 (bispecific antibody, human IgG1, kappa)
heavy: not shown
light: DIQMTQSPSSLSASVGDRVTITCRASSGIISYIDWFQQKPGKAPKRLIYATFDLASGVPSRFSGSGSGTDYTLTISSLQPEDFATYYCRQVGSYPETFGQGTKLEIKRTVAAPDIQMTQSPSSLSASVGDRVTITCRASGNIHNYLTWYQQTPGKAPKLLIYNAKTLADGVPSRFSGSGSGTDYTFTISSLQPEDIATYYCQHFWSIPYTFGQGTKLQITRTVAAPSVFIFPPSDEQLKSGTASVVCLLNNFYPREAKVQWKVDNALQSGNSQESVTEQDSKDSTYSLSSTLTLSKADYEKHKVYACEVTHQGLSSPVTKSFNRGEC
notes: V1 wt hIgG1, V2 kappa; also called DVD1620H; DVD1620L
B11: DVD1622 (bispecific antibody, human IgG1, kappa)
heavy: not shown
light: DIQMTQSPSSLSASVGDRVTITCRASSGIISYIDWFQQKPGKAPKRLIYATFDLASGVPSRFSGSGSGTDYTLTISSLQPEDFATYYCRQVGSYPETFGQGTKLEIKRTVAAPDIQMTQSPSSLSASVGDRVTITCRASGNIHNYLTWYQQTPGKAPKLLIYNAKTLADGVPSRFSGSGSGTDYTFTISSLQPEDIATYYCQHFWSIPYTFGQGTKLQITRTVAAPSVFIFPPSDEQLKSGTASVVCLLNNFYPREAKVQWKVDNALQSGNSQESVTEQDSKDSTYSLSSTLTLSKADYEKHKVYACEVTHQGLSSPVTKSFNRGEC
notes: V1 wt hIgG1, V2 kappa; also called DVD1622H; DVD1622L

Legend:
Recombinant Human IL-17 = target: T1, Recombinant Human IL-17; experiment: Biacore SPR; N-terminal VD
Description: (§1) The BIACORE assay (Biacore, Inc, Piscataway, N.J.) determines the affinity of antibodies or DVD-Ig with kinetic measurements of on-rate and off-rate constants. Binding of antibodies or DVD-Ig to a target antigen (for example, a purified recombinant target antigen) was determined by surface plasmon resonance-based measurements with a Biacore® 1000 or 3000 instrument (Biacore® AB, Uppsala, Sweden) using running HBS-EP (10 mM HEPES [pH 7.4], 150 mM NaCl, 3 mM EDTA, and 0.005% surfactant P20) at 25° C. All chemicals were obtained from Biacore® AB (Uppsala, Sweden) or otherwise from a different source as described in the text. For example, approximately 5000 RU of goat anti-mouse IgG, (Fcγ), fragment specific polyclonal antibody (Pierce Biotechnology Inc, Rockford, Ill.) diluted in 10 mM sodium acetate (pH 4.5) was directly immobilized across a CM5 research grade biosensor chip using a standard amine coupling kit according to manufacturer's instructions and procedures at 25 μg/ml. Unreacted moieties on the biosensor surface were blocked with ethanolamine. Modified carboxymethyl dextran surface in flowcell 2 and 4 was used as a reaction surface. Unmodified carboxymethyl dextran without goat anti-mouse IgG in flow cell 1 and 3 was used as the reference surface. For kinetic analysis, rate equations derived from the 1:1 Langmuir binding model were fitted simultaneously to association and dissociation phases of all eight injections (using global fit analysis) with the use of Biaevaluation 4.0.1 software. Purified antibodies or DVD-Ig were diluted in HEPES-buffered saline for capture across goat anti-mouse IgG specific reaction surfaces. Antibodies or DVD-Ig to be captured as a ligand (25 μg/ml) were injected over reaction matrices at a flow rate of 5 μl/min. The association and dissociation rate constants, kₒₙ (M⁻¹s⁻¹) and koff (s⁻¹) were determined under a continuous flow rate of 25 μl/min. Rate constants were derived by making kinetic binding measurements at different antigen concentrations ranging from 10−200 nM. The equilibrium dissociation constant (M) of the reaction between antibodies or DVD-Igs and the target antigen was then calculated from the kinetic rate constants by the following formula: KD=koff/kₒₙ. Binding was recorded as a function of time and kinetic rate constants are calculated.

Recombinant Human IL-1β = target: T2, Recombinant Human IL-1β (human, UniProt P01584 117-269); experiment: Biacore SPR; C-terminal VD
T2 construct: bought reagent; also called IL-1B
Description: as §1

Binder	Kd (Recombinant Human IL-17) [nM]	koff (Recombinant Human IL-17) [s⁻¹]	kon (Recombinant Human IL-17) [M⁻¹ s⁻¹]	Kd (Recombinant Human IL-1β) [nM]	koff (Recombinant Human IL-1β) [s⁻¹]	kon (Recombinant Human IL-1β) [M⁻¹ s⁻¹]
B1	0.0026	9.7e-06	3.8e+06	0.29	0.00037	1.3e+06
B2	0.0026	1.2e-05	4.8e+06	0.37	0.00056	1.5e+06
B3	0.014	4.8e-05	3.5e+06	0.18	0.0003	1.7e+06
B4	0.019	6.3e-05	3.2e+06	0.26	0.00062	2.4e+06
B5	0.011	4.1e-05	3.7e+06	0.84	0.00046	550000
B6	0.00067	3e-06	4.4e+06	0.32	0.00044	1.4e+06
B7	0.015	4.9e-05	3.3e+06	0.22	0.00036	1.6e+06
B8	0.017	5.7e-05	3.5e+06	0.25	7.3e-05	290000
B9	0.016	5.1e-05	3.2e+06	0.15	2.5e-05	160000
B10	0.0019	7.1e-06	3.8e+06	0.29	9.4e-05	330000
B11	0.00046	1.7e-06	3.7e+06	0.16	0.00023	1.5e+06
